The data set is described as follows: soluble on expression in E. coli; label from the status in PepcDB or PDB records.
With “MSLDVINQLPSPEALLEELHRVVSKPIRLMVVCGTHNRAILRYGIREELPDFIELVAGPGCSVCVMPTGHVDAFVKVARQPDVITATCEDLLKVRGSKESLADVLNEGVHRVEIISSPRQALELAYVEEDKIVVYPAVGFEATAPSIAETILEAAQNGVGNFCVIPSIRLLPPTIDALLLDPQLSIQGLLCSDHINTISDTEAYADLARKHSLSCCIAGFEKAEILQGILSMVKQIHRGESMVDASGAMVYSMEETARARRVVEEVFFPTETAWRGLGSIAESGFVIRDELALYDATKRFNVRFAEGTDQCMCHCNEIISGRALPPDCPAFGMACTLQNPVGPCMISNEGICAAYFKYKLESSRFSRLDVEGHHHHHH”, the “soluble on expression in E. coli” value is reported as “soluble”.
On to “MAAGQNGHEEWVGSAYLFVESSLDKVVLSDAYAHPQQKVAVYRALQAALAESGGSPDVLQMLKIHRSDPQLIVQLRFCGRQPCGRFLRAYREGALRAALQRSLAAALAQHSVPLQLELRAGAERLDALLADEERCLSCILAQQPDRLRDEELAELEDALRNLKCGSGARGGDGEVASAP”, for which the “soluble on expression in E. coli” value was “soluble”.
The result for “MSLKKILIIVPDGGMLFESAGIADILMQANRLHPEGAREICYQVKLATTQPHQVIHGQSGLNLLADHRLHEIDPREPLDTIMITGRGQNPQEGMAVVDWLRLAAPHARRIVSICGGAMLLAQTGLLDGRRATTHWKLLETMQAEFPQIRVEGGPLYIQDEHIWTSGGVSSGFDLTLALVEEDYGFSLARDIAQDFVMYLRRPGGQLQFSRYNLQQTATQGPINDLLAWLLENLTADLSVDKLAEKVAMSPRNFTRVFTRETGASPARYVAEARLAAARQRLEQTHETLDRIAEQTGFGSSINLRRLFEKQLNLTPGEYRQRFHCRKMAEGHHHHHH” reads “soluble”; that for “MVPAESNAVQAKLAKTLQRFENKIKAGDYYEAHQTLRTIANRYVRSKSYEHAIELISQGALSFLKAKQGGSGTDLIFYLLEVYDLAEVKVDDISVARLVRLIAELDPSEPNLKDVITGMNNWSIKFSEYKFGDPYLHNTIGSKLLEGDFVYEAERYFMLGTHDSMIKYVDLLWDWLCQVDDIEDSTVAEFFSRLVFNYLFISNISFAHESKDIFLERFIEKFHPKYEKIDKNGYEIVFFEDYSDLNFLQLLLITCQTKDKSYFLNLKNHYLDFSQAYKSELEFLGQEYFNIVAPKQTNFLQDMMSGFLGGSK”, “soluble”.
As to “MTYCLGVKLKDGLVAIADTRITSGTDTTTAKKLFVHESAHGSLFLMTSGLRSVRDKAITYFKEVLKDEHVVYNQLYEAVNAFGNQLRRVAEEDRKALYAAGFAFNLHTIVGGQLKNDEEPKMFLLYPEGNWIELTQTSPFMIIGNSGYGKPILNRTVKYESTLEEVLKAGFLSFDSTRVSANDVDFPLDVVVYYNNSFKMIEHRFEKKDMEIISTTWDNQLKQALDSVPEEWMNVVFDRKNVLLEHHHHHH”, the “soluble on expression in E. coli” value is on record as “not soluble”.
With “MGSDKIHHHHHHASCSNDDDEMDKYQKIYIRTGVAPGAEMGAAVVVDCVSNSSTADRSDFEIQLCAVQPVTRDVTAALGVDTLKVDTYNSANKTKCKLLPQDNYTIETSEVVLKTGQTVADSSFQVVLKNIEKLTNPDGYVLPVTLKGVTGMDEQAVSTSMKTVYIRIYTSVLYTSYTKPGNWSAVDRSAWSVSCSNVYADDDAKYGAHLAIDGEINTTWFTWGVANAGECWWNTVLDRPVTLTGFSVTKQSAYGSGYNLRSAEIKVRKEGETEWVTYPRVLTFRNFKGADPQYAAIEPPIPNVKEFRINCLTPDNYTGFAEINLYVKQ”, the “soluble on expression in E. coli” value was “not soluble”.
Turning to “MGSSHHHHHHSSGLEVLFQGPLHMRTQGIKPRIREILSKELPEELVKLLPKRWVRIGDVLLLPLRPELEPYKHRIAEVYAEVLGVKTVLRKGHIHGETRKPDYELLYGSDTVTVHVENGIKYKLDVAKIMFSPANVKERVRMAKVAKPDELVVDMFAGIGHLSLPIAVYGKAKVIAIEKDPYTFKFLVENIHLNKVEDRMSAYNMDNRDFPGENIADRILMGYVVRTHEFIPKALSIAKDGAIIHYHNTVPEKLMPREPFETFKRITKEYGYDVEKLNELKIKRYAPGVWHVVLDLRVFKS”, the “soluble on expression in E. coli” value is on record as “soluble”.
The value for “GPGSMQEEVTEHKYNIVFSRDPVPSGLSEEQYYPMRLSNGSAYLCVLPDITVEEKKTLQAEDSELDVPLSLEHVAVVNRALKNMCYTMEESWWTYRLCWGSGVEQFHRSAVAGDSKSNAPKQMKEDPHFVLGVAPPADVLDLRYGVNTKGLRYIYTIYSDGLTCDLTQLPRTTEVQLYCAREGEGNSPTMRVREAEVCRYIVSLTAKEVCLLGLKEIQQRYGVITCHETKPTNTVDWNNKQQG” was “not soluble”.
In the case of “MPLCTLRQMLGEARKHKYGVGAFNVNNMEQIQGIMKAVVQLKSPVILQCSRGALKYSDMIYLKKLCEAALEKHPDIPICIHLDHGDTLESVKMAIDLGFSSVMIDASHHPFDENVRITKEVVAYAHARSVSVEAELGTLGGIEEDVQNTVQLTEPQDAKKFVELTGVDALAVAIGTSHGAYKFKSESDIRLAIDRVKTISDLTGIPLVMHGSSSVPKDVKDMINKYGGKMPDAVGVPIESIVHAIGEGVCKINVDSDSRMAMTGAIRKVFVEHPEKFDPRDYLGPGRDAITEMLIPKIKAFGSAGHAGDYKVVSLEEAKAWYK”, the “soluble on expression in E. coli” value was “soluble”.
“ISGFYMSIMRDITEKRSMELQLFKSEERFREIFENAMDAIIIWSNDGRIVKANQSACKIFELPMNLLLKRKLCDFLVDSQQKYSITKRKYAKYGEIREELLFQMGNGQFKELEFTSKRTILEN”: the “soluble on expression in E. coli” value was “not soluble”.
Turning to “MGSDKIHHHHHHMIKNLSKAKSTSKTSSTTSETLTPANYYDRWTDQSFMSATWFKKFLACEAEALAELTGKWQPVRDAKALVVGNWLHSYFESKQAHEKFKDEHPESISKRGPTKGQLKSDFKVANAMIQSLTNDHDFNLLYQGDKEVIVTGEIGGYPWKGKIDCLNLKQGYFVDLKTTADIYKVYWNPETREKESFVYAYNYPLQMAVYQELIKQQFGVTCKPYIVAVSKQDPPDKQAIDLPEYRLTNAMNQVLESQQHLQDIIKGEADPIQCGHCAYCRSTKKLESVVSADDLLID”, the “soluble on expression in E. coli” value was “not soluble”.
Regarding “MSLSSKDLKLSTDVCEQILRVVSRSNRLEELVLENAGLRTDFAQKLASALAHNPNSGLHTINLAGNPLEDRGVSSLSIQFAKLPKGLKHLNLSKTSLSPKGVNSLSQSLSANPLTASTLVHLDLSGNVLRGDDLSHMYNFLAQPNAIVHLDLSNTECSLDMVCGALLRGCLQYLAVLNLSRTVFSHRKGKEVPPSFKQFFSSSLALMHINLSGTKLSPEPLKALLLGLACNHNLKGVSLDLSNCELRSGGAQVLEGCIAEIHNITSLDISDNGLESDLSTLIVWLSKNRSIQHLALGKNFNNMKSKNLTPVLDNLVQMIQDEESPLQSLSLADSKLKTEVTIIINALGSNTSLTKVDISGNGMGDMGAKMLAKALQINTKLRTVIWDKNNITAQGFQDIAVAMEKNYTLRFMPIPMYDASQALKTNPEKTEDALQKIENYLLRNHETRKYLQEQAYRLQQGIVTSTTQQMIDRICVKVQDHLNSLRNCGGDAIQEDLKSAERLMRDAKNSKTLLPNLYHVGGASWAGASGLLSSPIQETLESMAGEVTRVVDEQLKALLESMVDAAENLCPNVMKKAHIRQDLIHASTEKISIPRTFVKNVLLEQSGIDILNKISEVKLTVASFLSDRIVDEILDALSHCHHKLADHFSRRGKTLPQQEGHHHHHH”, the “soluble on expression in E. coli” value is recorded as “not soluble”.
The result for “GLIDAHGHVIGYGHSLLRVDLVNATSELDAVNRTISYAKDNPSMSWILGRGWNQVQWSNNSYPNAKSLDEAFPNKPVWLRRVDGHAGWANSKAMALAGITSASKAPVGGDIIKDKNGLPTGIFIDNAMTLITASITPPSPMEDKIALKRAMHSLASLGLTSVHDAGIEQKDIALYKTLASEGNMTIRINGMLYLPSTNWQQQLEQGPYRTEDEMFAVNSVKIQADGALGSRGASLINDYSDHSGHKGLLLHDKKSLQHYIDFAMNAGFQVNTHAIGDNANKLILDLYQQAIQKSQTKALRHRIEHAQVLRLEDISRFSSLNVIASMQATHATSDKNMAVTRLGGKRILGAYAWRKLLDSNTIIAAGSDFPVESPNPFFGLHASITRQDHKDLPIGGWYADQKMTRTEALRSFTIDAAYAGHQEKLIGSLEAGKKADFILLADDLLTMPESTIWQSQVSQTWVAGKKVFSAIDVPSVE” reads “not soluble”; that for “MNKQRLITELQSKGLRLVDPNAKDLGRKGGAGPSDHRAVTVDGTTVMVPIYTSTAAASPYSINLASMPPKTVLSKGDEEIAAIALPRQPKFYDLKTADGIPYSHIALLHSNNVLATTVQQTCIRYRDESTVCQFCAIEKSLDAGRTITRKLPEQLAEVTEAAVRLDGIEQVIMTTGTPNSGDRGAAYLTKCAAAIKARVNIPIQAQCEPPDDFIWFERMKAAGVDSLGMHLEAVDPDVRAKIMPGKAEVPVSYYYEAYEAAVKVFGWGQVSTYLLAGLGDSFETLVEASEKLVNMGVYPFVVPFVPISETPLANHPAPDSDFMFALYQRVGTIIKQSQISSVDMKAGCAKCGACSALSTFAKLEHHHHHH”, “not soluble”; that for “LTVHYDLQLYKINYKTQSPDGNLTIASGLVAMPIHPVGQVGIISYQHGTRFERNDVPSRNNEKNYIYLAAYGNSAGYMTVMPDYLGLGDNELTLHPYVQAETLASSSIDMLFAAKELANRLHYPISDKLYLAGYSEGGFSTIVMFEMLAKEYPDLPVSAVAPGSAPYGWEETMHFVMLEPGPRATAYLAYFFYSLQTYKSYWSGFDEIFAPPYNTLIPELMDGYHAVDEILQALPQDPLLIFQPKFSNGIISKTDRNTEILKINFNHYDFKPTAPLLLVGTKGDRDVPYAGAEMAYHSFRKYSDFVWIKSVSDALDHVQAHPFVLKEQVDFFKQFERQE”, “not soluble”.
In the case of “MGSDKIHHHHHHMSKITFKDIYIDGNKITEDSRKAIYLLPPQPLKYASNTWIYKTMPTMNQWLKDIEVQKKMHLNQSSYHLSFSFPANEKIDEVLLEKIRELGFQIGVLELYVIEAKALKELSRKRDVDIQLVSSNNINDYLHVYDAFARPFGDSYANMVKQHIYSSYNLDDIERLVAYVNHQPVGIVDIIMTDKTIEIDGFGVLEEFQHQGIGSEIQAYVGRMANERPVILVADGKDTAKDMYLRQGYVYQGFKYHILKENI”, the “soluble on expression in E. coli” value is “not soluble”.
For “MSEEAQPITLEAFAEAIRELPLSAVYAKVSEIRNSIAHLRRSNSELKAFIDETCESESDKRELEGYIAENEGVIATMNDRIGLLKTEIESRGERWIEEEIEANIKVDGDEVSTSQPIINGTAGDERPRAHEDATRRPEDRQTNEEEGVYL”, the “soluble on expression in E. coli” value is listed as “not soluble”.
In the case of “MKPYLMGNNPCGADATLFAFAASLLSPVFETPIRAAAESHPNLIAYMARMRTRYYPDFQGSGVFAPALEHHHHHH”, the “soluble on expression in E. coli” value was “not soluble”.
Regarding “AKDFEWNFAATLSMDKNKVTRLYGDNDVVYNVDSDRNIQKEGNLFLGESRNTIYIWKTGGIAQEIDMDRLNKINWNGYNVNPGDLYPLDYDNNGQIDQNDRVVIGSTDPKFYGGFSTDFSWKGLSLNAVFSYSYGAKKLSPWYETLIGSTGSGVASTDLLDRWTPENTDAEFPRVLAGFDYNHYGASSMDFSVQKASFLRLSALTLAYTFPTKVINALKLTNLRVYATGSNLFCLTNYNGYDPETGDWYPPTRMYTFGLNLAF”, the “soluble on expression in E. coli” value is “not soluble”.
Take “MAHHHHHHMQVWGLVGRLTLPPSSSGKARKGSRRIPAADARLSKGSVNNRGRFVHNNRRMDNTLSVVVEKPAGLRRQWIAWPRGKSRDDPYEAIVPLLHISHYLPPVMAEAASCLDVKASFFPSLFTAGDSASLSMPRGGRHAGGADTTFNGIQGQPRNSPDYYYLGNRGGDDGGSPLWAAPPMVRIEVWIDNIRITGSKSDVTLWEAQVLRNADSCHAYLGGTANRALRNTLFWGYDLIKLTVRYP”: the “soluble on expression in E. coli” value is “not soluble”.

The values above are taken from the DeepSol protein solubility set.
